The RNAGym collection of RNA variant scans (doi:10.1093/molbev/msab373)

B1: Azoarcus group I ribozyme (parent)
chain: GUGCCUUGCGCCGGGAAACCACGCAAGGGAUGGUGUCAAAUUCGGCGAAACCUAAGCGCCCGCCCGGGCGUAUGGCAACGCCGAGCCAAGCUUCGGCGCCUGCGCCGAUGAAGGUGUAGAGACUAGACGGCACCCACCUAAGGCAAACGCUAUGGUGAAGGCAUAGUCCAGGGAGUGGCGAAAGUCACACAAACCGG

Variants of: B1
Assay: reverse-splicing fitness (ratio to wild type); higher = more active; in vitro selection; Mg2+ level not given
Procedure, shortened: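 An in vitro group I ribozyme library with randomized positions was T7-transcribed and gel-purified. In triplicate, 10 pmol RNA in EPPS pH 7.5 was reacted with 50 pmoles of a 30-nt RNA substrate for 1 h at 37 °C across several added MgCl2 levels (1–48 mM), then stopped with EDTA. Products were reverse transcribed from a substrate-complementary primer, PCR-amplified and sequenced (HiSeq 4000). Fitness is a variant's read proportion after selection over that before, normalised to wild type.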

Variant	reverse-splicing fitness
GUGCCUUGCGCCGGGAAACCACGCAAGGGAUGGUGUCAAAUUCGGCGAAACCUAAGCGCCCGCCCGGGCGUAUGGCAACGCAGAGCCAAGCUUCGGCGCCUGCGCCGAUGAAGGUGUAGCGACUAGACGGCACCCACCUAAGGCUAACGCUAUGGUGAAGGCAUAGUCGAGGGAGAGGCGAAAGUCACACAAACCGG	0.0152
GUGCCUUGCGCCGGGAAACCACGCAAGGGAUGGUGUCAAAUUCGGCGAAACCUAAGCGCCCGCCCGGGCGUAUGGCAACGCAGAGCCAAGCUUCGGCGCCUGCGCCGAUGAAGGUGUAGCGACUAGACGGCACCCACCUAAGGCUAACGCUAUGGUGAAGGCAUAGUCGAGGGAGCGGCGAAAGUCACACAAACCGG	0.0191
GUGCCUUGCGCCGGGAAACCACGCAAGGGAUGGUGUCAAAUUCGGCGAAACCUAAGCGCCCGCCCGGGCGUAUGGCAACGCAGAGCCAAGCUUCGGCGCCUGCGCCGAUGAAGGUGUAGCGACUAGACGGCACCCACCUAAGGCUAACGCUAUGGUGAAGGCAUAGUCGAGGGAGGGGCGAAAGUCACACAAACCGG	0.00482
GUGCCUUGCGCCGGGAAACCACGCAAGGGAUGGUGUCAAAUUCGGCGAAACCUAAGCGCCCGCCCGGGCGUAUGGCAACGCAGAGCCAAGCUUCGGCGCCUGCGCCGAUGAAGGUGUAGCGACUAGACGGCACCCACCUAAGGCAAACGAUAUGGUGAAGGCAUAGUCCAGGGAGUGGCGAAAGUCACACAAACCGG	0.0224
GUGCCUUGCGCCGGGAAACCACGCAAGGGAUGGUGUCAAAUUCGGCGAAACCUAAGCGCCCGCCCGGGCGUAUGGCAACGCAGAGCCAAGCUUCGGCGCCUGCGCCGAUGAAGGUGUAGCGACUAGACGGCACCCACCUAAGGCUAACGUUAUGGUGAAGGCAUAGUCUAGGGAGGGGCGAAAGUCACACAAACCGG	0.00474
GUGCCUUGCGCCGGGAAACCACGCAAGGGAUGGUGUCAAAUUCGGCGAAACCUAAGCGCCCGCCCGGGCGUAUGGCAACGCAGAGCCAAGCUUCGGCGCCUGCGCCGAUGAAGGUGUAGCGACUAGACGGCACCCACCUAAGGCUAACGUUAUGGUGAAGGCAUAGUCUAGGGAGCGGCGAAAGUCACACAAACCGG	0.0137
GUGCCUUGCGCCGGGAAACCACGCAAGGGAUGGUGUCAAAUUCGGCGAAACCUAAGCGCCCGCCCGGGCGUAUGGCAACGCAGAGCCAAGCUUCGGCGCCUGCGCCGAUGAAGGUGUAGCGACUAGACGGCACCCACCUAAGGCAAACGAUAUGGUGAAGGCAUAGUCAAGGGAGGGGCGAAAGUCACACAAACCGG	0.00801
GUGCCUUGCGCCGGGAAACCACGCAAGGGAUGGUGUCAAAUUCGGCGAAACCUAAGCGCCCGCCCGGGCGUAUGGCAACGCAGAGCCAAGCUUCGGCGCCUGCGCCGAUGAAGGUGUAGCGACUAGACGGCACCCACCUAAGGCAAACGAUAUGGUGAAGGCAUAGUCAAGGGAGAGGCGAAAGUCACACAAACCGG	0.0213
GUGCCUUGCGCCGGGAAACCACGCAAGGGAUGGUGUCAAAUUCGGCGAAACCUAAGCGCCCGCCCGGGCGUAUGGCAACGCAGAGCCAAGCUUCGGCGCCUGCGCCGAUGAAGGUGUAGCGACUAGACGGCACCCACCUAAGGCAAACGAUAUGGUGAAGGCAUAGUCAAGGGAGCGGCGAAAGUCACACAAACCGG	0.0227
GUGCCUUGCGCCGGGAAACCACGCAAGGGAUGGUGUCAAAUUCGGCGAAACCUAAGCGCCCGCCCGGGCGUAUGGCAACGCAGAGCCAAGCUUCGGCGCCUGCGCCGAUGAAGGUGUAGCGACUAGACGGCACCCACCUAAGGCUAACGCUAUGGUGAAGGCAUAGUCUAGGGAGCGGCGAAAGUCACACAAACCGG	0.0114
GUGCCUUGCGCCGGGAAACCACGCAAGGGAUGGUGUCAAAUUCGGCGAAACCUAAGCGCCCGCCCGGGCGUAUGGCAACGCAGAGCCAAGCUUCGGCGCCUGCGCCGAUGAAGGUGUAGCGACUAGACGGCACCCACCUAAGGCUAACGCUAUGGUGAAGGCAUAGUCUAGGGAGGGGCGAAAGUCACACAAACCGG	0.0041
GUGCCUUGCGCCGGGAAACCACGCAAGGGAUGGUGUCAAAUUCGGCGAAACCUAAGCGCCCGCCCGGGCGUAUGGCAACGCAGAGCCAAGCUUCGGCGCCUGCGCCGAUGAAGGUGUAGCGACUAGACGGCACCCACCUAAGGCUAACGCUAUGGUGAAGGCAUAGUCUAGGGAGAGGCGAAAGUCACACAAACCGG	0.0169
GUGCCUUGCGCCGGGAAACCACGCAAGGGAUGGUGUCAAAUUCGGCGAAACCUAAGCGCCCGCCCGGGCGUAUGGCAACGCAGAGCCAAGCUUCGGCGCCUGCGCCGAUGAAGGUGUAGCGACUAGACGGCACCCACCUAAGGCUAACGCUAUGGUGAAGGCAUAGUCAAGGGAGAGGCGAAAGUCACACAAACCGG	0.0129
GUGCCUUGCGCCGGGAAACCACGCAAGGGAUGGUGUCAAAUUCGGCGAAACCUAAGCGCCCGCCCGGGCGUAUGGCAACGCAGAGCCAAGCUUCGGCGCCUGCGCCGAUGAAGGUGUAGCGACUAGACGGCACCCACCUAAGGCUAACGCUAUGGUGAAGGCAUAGUCAAGGGAGCGGCGAAAGUCACACAAACCGG	0.0124
GUGCCUUGCGCCGGGAAACCACGCAAGGGAUGGUGUCAAAUUCGGCGAAACCUAAGCGCCCGCCCGGGCGUAUGGCAACGCAGAGCCAAGCUUCGGCGCCUGCGCCGAUGAAGGUGUAGCGACUAGACGGCACCCACCUAAGGCUAACGCUAUGGUGAAGGCAUAGUCAAGGGAGGGGCGAAAGUCACACAAACCGG	0.00493
